Patent publication US20220213176A1 (SHANGHAITECH UNIVERSITY, published 2022)

Molecular target: SARS-CoV-2 spike receptor binding domain, wild-type (S-RBD) (SARS-CoV-2, UniProt P0DTC2 319-541)
Test: BLI (Octet RED96), biotin S-RBD on SA sensor, 1:1 fit

B1: S-E6 trimer (T4F) (other)
heavy: QVTLRESGPGLVKPSETLSLTCAVSGGSLSSVNYYWSWIRQHPGKGLEWIGYIYYSGSTNYNPSLKSRVTMSLDTSKNQFSLKLSSVTAADTAVYYCATPGAIMGALHIWGQGTLVTVSSASTKGPSVFPLAPSSKSTSGGTAALGCLVKDYFPEPVTVSWNSGALTSGVHTFPAVLQSSGLYSLSSVVTVPSSSLGTQTYICNVNHKPSNTKVDKKVEPPKSGGGGSGGGGSGGGGSPGSGYIPEAPRDGQAYVRKDGEWVLLSTFLGHHHHHH
light: QAVLTQPSSASSTPGQRVIISCSGSSSNIGSNTVSWYQQVPGAAPKLLIYFDYRRPSGVPDRFSGTRSGTSASLGISGLQSEDEADYYCAAWDDSLSAWVFGRGTKLTVLGGLGGLVDYKGQPKAAPSVTLFPPSSEELQANKATLVCLISDFYPGAVTVAWKADSSPVKAGVETTTPSKQSNNKYAASSYLSLTPEQWKSHRSYSCQVTHEGSTVEKTVAPTECS
notes: also called trimer S-E6; trimeric S-E6
B1 gave a Kd of 0.0101 nM.
